Experimental findings from patent US20240343799A1 are described below.

B1: polmab (antibody, human IgG1, kappa, V domains shown)
VH: EVQLVESGGGLVQPGGSLRLSCAASGYTFSSYWIEWVRQAPGKGLEWIGEILPGGGDTNYNEIFKGRATFSADTSKNTAYLQMNSLRAEDTAVYYCTRRVPIRLDYWGQGTLVTVSS
VL: DIQLTQSPSSLSASVGDRVTITCKASQSVDYEGDSFLNWYQQKPGKAPKLLIYAASNLESGVPSRFSGSGSGTDFTLTISSLQPEDFATYYCQQSNEDPLTFGQGTKVEIKR
B2: hz38D9B3.11 (antibody, V domains shown)
VH: QVQLVQSGSELKKPGASVKVSCKASGYTFTDYSMHWVRQAPGQGLEWMGWINTETGEPSYADDFKGRFVFSLDTSVSTAYLQISSLKAEDTAVYYCYYGPYWGQGTLVTVSS
VL: EIVLTQSPATLSLSPGERATLSCKASQSVDHDVDSYMDWYQQKPGQAPRLLIYSASNLESGIPARFSGSGSGTDFTLTISSLEPEDFAVYYCQQINEYPYTFGGGTKVEIK
B3: A7v14b (antibody, V domains shown)
VH: EVQLVQSGAEVKKPGASVKVSCKASGYTFTTYYMNWVRQAPGQGLEWIGMIDPSDSETHYNQKFQGRATLTVDTSTSTAYLELSSLRSEDTAVYYCSRSLAFWGQGTLVTVSS
VL: DIVMTQTPLSLPVTPGQPASISCKSSQSLLDSDGKTYLNWLLQKPGQSPQSLIYLVSKLDSGVPDRFSGSGSGTDFTLKISRVEAEDVGVYYCWQGTHFPQTFGQGTKVEIK
B4: hz11G10.9.p1 (antibody, V domains shown)
VH: QVQLVQSGAEVKKPGASVKVSCKASGYTFTDYWVNWVRQAPGQGLEWMGMIDPSDSETHYNQMFNDRVTMTVDTSTSTVYMELSSLRSEDTAVYYCTRSNYYWGQGTLVTVSS
VL: DIVMTQTPLSLSVTPGQPASISCKSSQSLLDSEGKTYLNWLLQKPGQSPQSLIYLVSKLDSGVPDRFSGSGSGTDFTLKISRVEAEDVGVYYCWQGTHFPLTFGGGTKVEIK
B5: hz34F1.14 (antibody, V domains shown)
VH: QVQLVQSGAEVKKPGASVKVSCKASGYSFTTYWMNWVRQAPGQGLTWMGMIDPSDSETHYNHLFKDRVTMTVDKSTSTAYMELSSLRSEDTAVYYCTRAIGYWGQGTLVTVSS
VL: DVVMTQSPLSLPVTLGQPASISCKSSLSLLDSEGKTYLNWFQQRPGQSPRPLISLVSKLDSGVPDRFSGSGSGTDFTLKISRVEAEDVGVYYCWQGTHFPLTFGGGTKVEIK

The first assay addresses huCD79b-N (human) (UniProt P40259). The assay is described as follows: BLI (ForteBio).
Consider B1, for which the dissociation constant (Kd) is 3.1 nM.

Another assay has the same target. The assay is described as follows: BLI (ForteBio), antibody loaded on sensor, antigen in solution.
Molecule B2 registered a Kd of 0.275 nM.
As to B3, the dissociation constant (Kd) worked out at 8.56 nM.
Same read-out and setting: the same measure for B4: 3.4 nM; for B5: 8.07 nM.
In the case of B1, the dissociation constant (Kd) stood at 3.22 nM.
